These results are taken from patent US20250242021A1 (published 2025).

Assay [1] concerns the target T1, minor histocompatibility antigen (miHA) HA-1, 'H' epitope peptide on HLA-A*02:01 (human).
T1 peptide: VLHDDLLEA
Kind of assay: killing.

For assay [2], the target named is T2, minor histocompatibility antigen (miHA) HA-1, 'R' epitope (non-target allelic variant) peptide on HLA-A*02:01 (human).
T2 peptide: VLRDDLLEA
Kind of assay: killing.

In assay [3] the target is T3, minor histocompatibility antigen (miHA) HA-1, 'H' epitope peptide on HLA-A*02:06 (human).
T3 peptide: VLHDDLLEA
Kind of assay: activation reporter or marker.

B1: anti-HA-1 'H' epitope TCR (TCR, V domains shown)
Valpha: AQSVAQPEDQVNVAEGNPLTVKCTYSVSGNPYLFWYVQYPNRGLQFLLKYITGDNLVKGSYGFEAEFNKSQTSFHLKKPSALVSDSALYFCAVRAPTSGTYKYIFGTGTRLKVLA
Vbeta: DTGVSQDPRHKITKRGQNVTFRCDPISEHNRLYWYRQTLGQGPEFLTYFQNEAQLEKSRLLSDRFSAERPKGSFSTLEIQRTEQGDSAMYLCASSLVSGNEQFFGPGTRLTVL
With B1, the binding result in assay [1] is “recognises”; in assay [2] it was “no recognition”; in assay [3] it was “recognises”.
